One substance from US20150283214A1 can be followed below.

This experiment has as its target α5β1 integrin on mouse embryonic fibronectin-null fibroblasts (mouse) (UniProt P11688). The experiment is described as follows: cell-based or functional assay.

Chain of Human plasma fibronectin, P02751 32-2477 (other; Alexa^488 label where used as FN^488) (P02751 other isoform, or with tags, fused parts or gaps): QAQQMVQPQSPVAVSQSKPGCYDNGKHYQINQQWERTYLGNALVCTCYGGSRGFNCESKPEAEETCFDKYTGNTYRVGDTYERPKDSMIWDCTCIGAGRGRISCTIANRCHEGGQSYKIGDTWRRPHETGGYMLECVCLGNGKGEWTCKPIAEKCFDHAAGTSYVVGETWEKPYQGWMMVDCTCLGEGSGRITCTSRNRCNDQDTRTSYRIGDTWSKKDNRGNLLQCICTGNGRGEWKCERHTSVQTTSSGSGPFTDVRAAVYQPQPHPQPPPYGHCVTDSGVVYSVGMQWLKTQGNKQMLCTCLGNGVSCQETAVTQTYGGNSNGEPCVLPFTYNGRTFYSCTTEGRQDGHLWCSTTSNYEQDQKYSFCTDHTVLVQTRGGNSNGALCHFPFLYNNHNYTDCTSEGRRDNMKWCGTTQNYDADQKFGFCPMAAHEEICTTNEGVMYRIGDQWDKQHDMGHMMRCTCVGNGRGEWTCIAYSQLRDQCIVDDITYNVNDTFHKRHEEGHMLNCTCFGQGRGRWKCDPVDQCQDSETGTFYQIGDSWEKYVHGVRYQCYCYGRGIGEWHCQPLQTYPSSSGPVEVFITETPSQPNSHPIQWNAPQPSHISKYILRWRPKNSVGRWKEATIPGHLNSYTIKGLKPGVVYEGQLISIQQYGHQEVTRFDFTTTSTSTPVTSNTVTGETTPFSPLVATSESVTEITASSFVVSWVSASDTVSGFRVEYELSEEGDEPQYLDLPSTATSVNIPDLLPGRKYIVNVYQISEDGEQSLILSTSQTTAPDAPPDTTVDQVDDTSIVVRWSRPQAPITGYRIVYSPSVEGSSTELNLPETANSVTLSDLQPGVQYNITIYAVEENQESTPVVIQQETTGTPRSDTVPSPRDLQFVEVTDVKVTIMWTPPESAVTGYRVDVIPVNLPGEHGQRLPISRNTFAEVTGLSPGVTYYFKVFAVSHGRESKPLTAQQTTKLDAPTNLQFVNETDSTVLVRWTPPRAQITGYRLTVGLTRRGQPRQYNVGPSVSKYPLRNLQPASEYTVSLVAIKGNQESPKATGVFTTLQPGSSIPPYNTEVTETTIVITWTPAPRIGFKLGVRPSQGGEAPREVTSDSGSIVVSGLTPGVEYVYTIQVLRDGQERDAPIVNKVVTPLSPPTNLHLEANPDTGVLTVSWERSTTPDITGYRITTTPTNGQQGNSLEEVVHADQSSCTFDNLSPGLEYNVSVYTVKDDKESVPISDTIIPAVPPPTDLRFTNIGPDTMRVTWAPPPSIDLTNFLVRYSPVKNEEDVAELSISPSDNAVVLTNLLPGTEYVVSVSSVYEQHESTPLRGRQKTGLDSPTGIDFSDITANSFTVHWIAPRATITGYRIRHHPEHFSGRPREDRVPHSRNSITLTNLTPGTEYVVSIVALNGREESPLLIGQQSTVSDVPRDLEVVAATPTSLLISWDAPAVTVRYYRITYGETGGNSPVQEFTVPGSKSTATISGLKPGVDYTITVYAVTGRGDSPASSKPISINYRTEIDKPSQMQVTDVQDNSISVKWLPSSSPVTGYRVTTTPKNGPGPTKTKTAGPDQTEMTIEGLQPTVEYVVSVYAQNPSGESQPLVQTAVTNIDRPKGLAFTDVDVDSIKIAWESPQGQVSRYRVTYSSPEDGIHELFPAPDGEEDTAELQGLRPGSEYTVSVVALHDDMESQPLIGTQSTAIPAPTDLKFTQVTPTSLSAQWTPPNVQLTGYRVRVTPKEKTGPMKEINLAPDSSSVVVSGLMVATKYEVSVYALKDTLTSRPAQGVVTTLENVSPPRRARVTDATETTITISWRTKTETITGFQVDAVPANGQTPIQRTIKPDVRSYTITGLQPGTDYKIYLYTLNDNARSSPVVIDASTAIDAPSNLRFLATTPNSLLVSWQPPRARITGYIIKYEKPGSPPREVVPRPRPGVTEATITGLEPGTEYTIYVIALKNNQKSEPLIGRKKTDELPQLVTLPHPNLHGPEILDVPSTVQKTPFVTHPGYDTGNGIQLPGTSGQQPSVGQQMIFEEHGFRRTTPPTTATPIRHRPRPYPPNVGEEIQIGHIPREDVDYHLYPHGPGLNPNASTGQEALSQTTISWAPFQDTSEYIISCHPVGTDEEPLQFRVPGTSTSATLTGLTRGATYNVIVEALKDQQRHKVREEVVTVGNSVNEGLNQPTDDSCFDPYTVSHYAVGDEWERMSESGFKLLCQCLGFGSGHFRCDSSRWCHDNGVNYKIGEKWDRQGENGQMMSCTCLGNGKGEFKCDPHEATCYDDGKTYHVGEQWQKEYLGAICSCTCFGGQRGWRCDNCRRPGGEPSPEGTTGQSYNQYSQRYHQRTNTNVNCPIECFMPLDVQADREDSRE
Chain of α5β1 integrin on mouse embryonic fibronectin-null fibroblasts (mouse) (P11688 45-1053, chain 1 of 2): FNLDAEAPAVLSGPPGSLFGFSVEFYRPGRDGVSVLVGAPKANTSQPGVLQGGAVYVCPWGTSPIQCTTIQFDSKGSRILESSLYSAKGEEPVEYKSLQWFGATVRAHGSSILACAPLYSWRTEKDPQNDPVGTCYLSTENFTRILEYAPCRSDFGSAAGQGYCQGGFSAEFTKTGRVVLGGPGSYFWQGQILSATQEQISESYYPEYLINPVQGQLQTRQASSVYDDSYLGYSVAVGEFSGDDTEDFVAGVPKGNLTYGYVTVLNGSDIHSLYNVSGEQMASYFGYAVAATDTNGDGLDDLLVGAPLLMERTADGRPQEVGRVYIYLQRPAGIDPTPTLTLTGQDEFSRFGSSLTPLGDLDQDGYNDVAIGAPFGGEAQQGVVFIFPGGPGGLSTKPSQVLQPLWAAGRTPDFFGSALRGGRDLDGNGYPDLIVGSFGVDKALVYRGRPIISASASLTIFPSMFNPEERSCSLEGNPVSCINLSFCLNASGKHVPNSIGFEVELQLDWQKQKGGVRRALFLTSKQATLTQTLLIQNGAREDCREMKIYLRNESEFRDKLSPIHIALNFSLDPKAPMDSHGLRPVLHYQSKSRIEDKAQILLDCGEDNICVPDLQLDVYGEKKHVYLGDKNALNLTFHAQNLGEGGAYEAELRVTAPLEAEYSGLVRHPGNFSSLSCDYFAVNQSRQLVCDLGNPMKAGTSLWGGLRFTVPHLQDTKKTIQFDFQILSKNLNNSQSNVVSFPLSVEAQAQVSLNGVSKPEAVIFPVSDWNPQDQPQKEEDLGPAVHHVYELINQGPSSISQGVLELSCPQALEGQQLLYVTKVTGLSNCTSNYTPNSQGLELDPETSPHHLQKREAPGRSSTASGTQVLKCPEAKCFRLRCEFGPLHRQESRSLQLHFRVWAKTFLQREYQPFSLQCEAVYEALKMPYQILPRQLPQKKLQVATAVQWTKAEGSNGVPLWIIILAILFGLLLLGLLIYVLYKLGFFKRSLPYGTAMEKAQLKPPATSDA
Chain of α5β1 integrin on mouse embryonic fibronectin-null fibroblasts (mouse) (P09055 21-798, chain 2 of 2, further chain): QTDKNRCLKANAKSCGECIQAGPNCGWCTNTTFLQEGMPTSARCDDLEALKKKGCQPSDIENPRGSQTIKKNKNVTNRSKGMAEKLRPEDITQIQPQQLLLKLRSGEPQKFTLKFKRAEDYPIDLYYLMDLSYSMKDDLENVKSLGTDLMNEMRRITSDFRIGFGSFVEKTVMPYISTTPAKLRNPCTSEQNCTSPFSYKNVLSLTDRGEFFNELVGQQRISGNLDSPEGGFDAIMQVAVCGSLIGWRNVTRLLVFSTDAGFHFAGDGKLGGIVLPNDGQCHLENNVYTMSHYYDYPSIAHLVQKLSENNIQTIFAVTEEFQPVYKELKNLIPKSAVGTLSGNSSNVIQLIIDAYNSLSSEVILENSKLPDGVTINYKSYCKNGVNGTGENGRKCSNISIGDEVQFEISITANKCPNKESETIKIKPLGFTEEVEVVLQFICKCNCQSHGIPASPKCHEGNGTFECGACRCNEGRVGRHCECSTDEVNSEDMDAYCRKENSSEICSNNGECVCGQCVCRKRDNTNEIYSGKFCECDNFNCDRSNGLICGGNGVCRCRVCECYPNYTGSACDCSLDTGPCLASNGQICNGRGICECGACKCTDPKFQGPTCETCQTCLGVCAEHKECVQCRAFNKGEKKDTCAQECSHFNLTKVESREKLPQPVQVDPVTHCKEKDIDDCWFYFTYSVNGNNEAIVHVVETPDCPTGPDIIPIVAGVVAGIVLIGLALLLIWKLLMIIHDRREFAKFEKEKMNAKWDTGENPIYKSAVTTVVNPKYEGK

“Human plasma fibronectin, P02751 32-2477 (other; Alexa^488 label where used as FN^488)” yielded a reduction of FN-null MEF adhesion to full-length fibronectin by α5 integrin-blocking antibody of 53% and a reduction of FN-null MEF adhesion to full-length fibronectin by β1 integrin-blocking antibody of 71.3%.
